Test results taken from PMC9482650, “Quantitative fragmentomics allow affinity mapping of interactomes” (Nature Communications, 2022).

Experiments:
Test in all cases: holdup assay
Parameters in all cases: key: below the threshold = too weak to quantify, mostly under pKd 3.1 to 4
Details in all cases: plain residues with an end cap or a label only (N-terminal biotin on a linker: ado-ado)
SYNJ2BP, P57105 = target: T1, SYNJ2BP, P57105
T1 sequence (P57105 8-110, limits assumed, looked up): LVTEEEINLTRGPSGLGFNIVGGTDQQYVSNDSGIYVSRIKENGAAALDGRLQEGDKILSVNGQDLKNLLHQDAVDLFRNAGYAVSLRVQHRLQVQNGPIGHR

NHERF3_1, Q5T2W1 = target: T2, NHERF3_1, Q5T2W1
T2 sequence (Q5T2W1 4-100, limits assumed, looked up): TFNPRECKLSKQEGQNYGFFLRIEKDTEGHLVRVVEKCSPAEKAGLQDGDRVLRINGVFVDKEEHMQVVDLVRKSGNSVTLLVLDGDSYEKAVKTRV

Inadl_8, Q8NI35 = target: Inadl_8, Q8NI35
PICK1, Q9NRD5 = target: PICK1, Q9NRD5
DLG3_3, Q92796 = target: T3, DLG3_3, Q92796
T3 sequence (Q92796 374-475, limits assumed, looked up): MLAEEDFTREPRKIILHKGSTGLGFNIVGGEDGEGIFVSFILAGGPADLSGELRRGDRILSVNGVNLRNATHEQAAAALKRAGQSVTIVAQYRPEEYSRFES

HTRA1, Q92743 = target: HTRA1, Q92743
GRIP2_5, Q9C0E4 = target: GRIP2_5, Q9C0E4
FRMPD2_3, Q68DX3 = target: FRMPD2_3, Q68DX3
GRID2IP_2, A4D2P6 = target: GRID2IP_2, A4D2P6
GRIP1_3, Q9Y3R0 = target: T4, GRIP1_3, Q9Y3R0
T4 sequence (Q9Y3R0 247-346, limits assumed, looked up): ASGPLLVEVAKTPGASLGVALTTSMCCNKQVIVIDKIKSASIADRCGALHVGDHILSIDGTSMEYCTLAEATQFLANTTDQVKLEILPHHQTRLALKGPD

MPP2, Q14168 = target: T5, MPP2, Q14168
T5 sequence (Q14168 180-250, limits assumed, looked up): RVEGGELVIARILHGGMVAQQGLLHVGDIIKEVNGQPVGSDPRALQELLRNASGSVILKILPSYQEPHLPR

RHPN1, Q8TCX5 = target: T6, RHPN1, Q8TCX5
T6 sequence (Q8TCX5 508-602, limits assumed, looked up): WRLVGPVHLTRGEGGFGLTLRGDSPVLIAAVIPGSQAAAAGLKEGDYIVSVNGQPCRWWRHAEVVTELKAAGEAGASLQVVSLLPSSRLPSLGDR

IL16_3, Q14005 = target: IL16_3, Q14005
GRIP2_4, Q9C0E4 = target: GRIP2_4, Q9C0E4
APBA1_1, Q02410 = target: T7, APBA1_1, Q02410
T7 sequence (Q02410 651-752, limits assumed, looked up): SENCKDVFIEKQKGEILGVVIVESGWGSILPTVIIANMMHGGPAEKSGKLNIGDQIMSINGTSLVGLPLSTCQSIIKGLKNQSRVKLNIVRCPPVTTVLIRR

APBA1_2, Q02410 = target: T8, APBA1_2, Q02410
T8 sequence (Q02410 742-832, limits assumed, looked up): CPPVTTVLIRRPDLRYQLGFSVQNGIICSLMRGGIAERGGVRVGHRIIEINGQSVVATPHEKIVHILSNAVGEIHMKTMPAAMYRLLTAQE

LNX2_2, Q8N448 = target: T9, LNX2_2, Q8N448
T9 sequence (Q8N448 334-432, limits assumed, looked up): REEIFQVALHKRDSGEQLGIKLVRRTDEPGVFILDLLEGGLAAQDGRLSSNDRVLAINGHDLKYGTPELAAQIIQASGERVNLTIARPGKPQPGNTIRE

GRIP1_5, Q9Y3R0 = target: T10, GRIP1_5, Q9Y3R0
T10 sequence (Q9Y3R0 568-668, limits assumed, looked up): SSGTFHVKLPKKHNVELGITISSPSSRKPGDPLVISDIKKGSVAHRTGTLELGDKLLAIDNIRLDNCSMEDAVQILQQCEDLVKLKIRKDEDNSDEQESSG

NOS1, P29475 = target: NOS1, P29475
SNX27, Q96L92 = target: SNX27, Q96L92
DLG4_1, P78352 = target: DLG4_1, P78352
PDLIM1, O00151 = target: PDLIM1, O00151
MAGI1_1, Q96QZ7 = target: MAGI1_1, Q96QZ7
AHNAK1, Q09666 = target: AHNAK1, Q09666
DLG3_1, Q92796 = target: T11, DLG3_1, Q92796
T11 sequence (Q92796 125-227, limits assumed, looked up): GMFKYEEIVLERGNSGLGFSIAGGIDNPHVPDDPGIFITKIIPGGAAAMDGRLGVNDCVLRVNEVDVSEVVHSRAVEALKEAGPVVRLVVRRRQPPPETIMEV

TIAM2, Q8IVF5 = target: T12, TIAM2, Q8IVF5
T12 sequence (Q8IVF5 885-986, limits assumed, looked up): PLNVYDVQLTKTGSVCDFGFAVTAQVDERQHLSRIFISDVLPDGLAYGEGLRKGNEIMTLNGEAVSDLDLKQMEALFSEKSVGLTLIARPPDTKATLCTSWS

Sequence of PICK1, Q9NRD5 (Q9NRD5 17-115): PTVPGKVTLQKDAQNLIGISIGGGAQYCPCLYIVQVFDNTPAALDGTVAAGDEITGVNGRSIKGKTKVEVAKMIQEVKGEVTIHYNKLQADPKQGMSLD
Sequence of DLG4_1, P78352 (P78352 62-152): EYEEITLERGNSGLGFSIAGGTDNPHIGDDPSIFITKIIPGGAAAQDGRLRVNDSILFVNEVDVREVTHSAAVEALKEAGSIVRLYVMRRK
Sequence of PDLIM1, O00151 (O00151 1-87): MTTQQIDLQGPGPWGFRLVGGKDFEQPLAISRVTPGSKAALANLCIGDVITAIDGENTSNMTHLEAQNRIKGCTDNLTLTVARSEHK
Sequence of HTRA1, Q92743 (Q92743 360-477): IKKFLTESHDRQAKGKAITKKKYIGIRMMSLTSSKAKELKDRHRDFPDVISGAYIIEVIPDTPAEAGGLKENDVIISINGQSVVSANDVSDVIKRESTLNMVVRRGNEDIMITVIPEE
Sequence of GRID2IP_2, A4D2P6 (A4D2P6 272-370): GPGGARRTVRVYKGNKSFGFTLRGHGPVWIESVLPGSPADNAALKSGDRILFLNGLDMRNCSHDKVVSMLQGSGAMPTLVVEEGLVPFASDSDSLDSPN
Sequence of GRIP2_5, Q9C0E4 (Q9C0E4 544-642): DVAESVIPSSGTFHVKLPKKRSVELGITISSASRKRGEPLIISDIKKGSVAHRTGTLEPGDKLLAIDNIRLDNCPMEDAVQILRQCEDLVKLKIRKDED
Sequence of AHNAK1, Q09666 (Q09666 4-100): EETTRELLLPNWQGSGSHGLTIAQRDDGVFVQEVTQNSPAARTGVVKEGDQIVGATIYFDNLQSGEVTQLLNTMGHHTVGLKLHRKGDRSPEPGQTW
Sequence of NOS1, P29475 (P29475 9-101): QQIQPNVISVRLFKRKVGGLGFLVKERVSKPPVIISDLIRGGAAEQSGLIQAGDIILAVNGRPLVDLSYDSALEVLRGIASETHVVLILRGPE
Sequence of FRMPD2_3, Q68DX3 (Q68DX3 1073-1166): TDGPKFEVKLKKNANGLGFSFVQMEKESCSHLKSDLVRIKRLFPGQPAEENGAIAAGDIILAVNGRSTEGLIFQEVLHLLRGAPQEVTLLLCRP
Sequence of GRIP2_4, Q9C0E4 (Q9C0E4 446-548): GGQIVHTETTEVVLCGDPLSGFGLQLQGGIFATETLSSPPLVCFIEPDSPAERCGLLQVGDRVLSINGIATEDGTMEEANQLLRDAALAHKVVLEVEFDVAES
Sequence of IL16_3, Q14005 (Q14005 1107-1207): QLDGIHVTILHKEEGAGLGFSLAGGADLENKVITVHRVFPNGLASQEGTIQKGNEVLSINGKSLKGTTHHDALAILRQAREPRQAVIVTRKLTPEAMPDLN
Sequence of Inadl_8, Q8NI35 (Q8NI35 1425-1530): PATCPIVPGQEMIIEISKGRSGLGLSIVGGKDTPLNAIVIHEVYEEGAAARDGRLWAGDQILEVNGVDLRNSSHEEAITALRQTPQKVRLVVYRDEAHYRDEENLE
Sequence of MAGI1_1, Q96QZ7 (Q96QZ7 1-106): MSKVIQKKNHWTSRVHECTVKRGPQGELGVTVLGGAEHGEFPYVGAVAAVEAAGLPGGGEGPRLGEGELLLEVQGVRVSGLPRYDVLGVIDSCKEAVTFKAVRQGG

Binder | pKd (SYNJ2BP, P57105) | pKd (NHERF3_1, Q5T2W1) | pKd (Inadl_8, Q8NI35) | pKd (PICK1, Q9NRD5) | pKd (DLG3_3, Q92796) | pKd (HTRA1, Q92743) | pKd (GRIP2_5, Q9C0E4) | pKd (FRMPD2_3, Q68DX3) | pKd (GRID2IP_2, A4D2P6) | pKd (GRIP1_3, Q9Y3R0) | pKd (MPP2, Q14168) | pKd (RHPN1, Q8TCX5) | pKd (IL16_3, Q14005) | pKd (GRIP2_4, Q9C0E4) | pKd (APBA1_1, Q02410) | pKd (APBA1_2, Q02410) | pKd (LNX2_2, Q8N448) | pKd (GRIP1_5, Q9Y3R0) | pKd (NOS1, P29475) | pKd (SNX27, Q96L92) | other results
HLRARKSEWV [GJD4, Q96KN9] | 4.2 | 4.08 | 3.59 | below the threshold | below the threshold | 4.38 | below the threshold | below the threshold | 3.89 | below the threshold | below the threshold | below the threshold | below the threshold | below the threshold | below the threshold | 4.73 | 5 | below the threshold | 4.89 | 4.38 | pKd (DLG4_1, P78352): below the threshold; pKd (PDLIM1, O00151): below the threshold; pKd (MAGI1_1, Q96QZ7): below the threshold; pKd (AHNAK1, Q09666): below the threshold; pKd (DLG3_1, Q92796): below the threshold; pKd (TIAM2, Q8IVF5): 4.1
DDPSTAETVL [ABCA7, Q8IZY2] | 4.16 | 4.64 | below the threshold | below the threshold | below the threshold | 4.64 | below the threshold | below the threshold | below the threshold | below the threshold | below the threshold | 4.92 | below the threshold | below the threshold | below the threshold | below the threshold | below the threshold | below the threshold | 3.52 | 5.6 | pKd (DLG4_1, P78352): below the threshold; pKd (PDLIM1, O00151): below the threshold; pKd (MAGI1_1, Q96QZ7): below the threshold; pKd (AHNAK1, Q09666): below the threshold; pKd (DLG3_1, Q92796): below the threshold; pKd (TIAM2, Q8IVF5): 3.99
VDSTVKVWTC [TRAF7, Q6Q0C0] | below the threshold | below the threshold | below the threshold | below the threshold | below the threshold | 5.61 | below the threshold | 3.71 | below the threshold | below the threshold | below the threshold | below the threshold | below the threshold | below the threshold | below the threshold | 3.5 | 5.42 | below the threshold | below the threshold | below the threshold | pKd (DLG4_1, P78352): below the threshold; pKd (PDLIM1, O00151): below the threshold; pKd (MAGI1_1, Q96QZ7): 3.62; pKd (AHNAK1, Q09666): below the threshold; pKd (DLG3_1, Q92796): below the threshold; pKd (TIAM2, Q8IVF5): 4.22
QHKTQLQTLI [BPIFA2, Q96DR5] | 4.12 | 5.29 | 3.54 | below the threshold | below the threshold | 4.06 | below the threshold | below the threshold | 3.93 | below the threshold | below the threshold | 4.26 | below the threshold | below the threshold | below the threshold | below the threshold | 4 | below the threshold | 4.2 | 3.83 | pKd (DLG4_1, P78352): 4.38; pKd (PDLIM1, O00151): below the threshold; pKd (MAGI1_1, Q96QZ7): 3.66; pKd (AHNAK1, Q09666): below the threshold; pKd (DLG3_1, Q92796): 3.68; pKd (TIAM2, Q8IVF5): below the threshold
